Results: the Immune Epitope Database (IEDB)
pKd: −log10 of the molar value. Values belong to the sequence of their own block, whether it stands above or below them.

How the values were obtained:
HLA-A*02:03 = experiment: IEDB peptide-MHC binding, purified MHC/competitive/radioactivity; filed as Kd, often an IC50 or EC50 that approximates it; ≥ and ≤ were set here for values at or beyond the usual limits of such assays
HLA-A*02:17 = experiment: as above
HLA-A*02:01 [1] = experiment: as above
HLA-A*68:02 = experiment: as above
HLA-A*02:06 = experiment: as above
HLA-A*02:02 = experiment: as above
HLA-A*68:01 = experiment: as above
HLA-B*51:01 = experiment: as above
HLA-A*01:01 [2] = experiment: as above
HLA-B*53:01 = experiment: as above
HLA-B*35:01 = experiment: as above
HLA-A*33:01 = experiment: as above
HLA-A*03:01 [3] = experiment: as above
HLA-B*08:01 [4] = experiment: as above
HLA-A*11:01 [5] = experiment: as above
HLA-B*07:02 [6] = experiment: as above
HLA-A*31:01 [7] = experiment: as above
HLA-B*54:01 = experiment: as above
HLA-A*69:01 = experiment: IEDB peptide-MHC binding, purified MHC/direct/fluorescence; filed as Kd, often an IC50 or EC50 that approximates it; ≥ and ≤ were set here for values at or beyond the usual limits of such assays; conditions: source organism: dengue virus type 3
HLA-A*26:01 = experiment: IEDB peptide-MHC binding, purified MHC/competitive/radioactivity; filed as Kd, often an IC50 or EC50 that approximates it; ≥ and ≤ were set here for values at or beyond the usual limits of such assays; conditions: source organism: Lassa virus Josiah
HLA-A*30:02 = experiment: as above; conditions: source organism: Lassa virus Josiah
HLA-A*30:01 = experiment: as above; conditions: source organism: Lassa virus Josiah
HLA-A*32:01 = experiment: as above; conditions: source organism: Lassa virus Josiah
HLA-A*29:02 [8] = experiment: as above; conditions: source organism: Lassa virus Josiah
HLA-A*01:01 [9] = experiment: IEDB peptide-MHC binding, purified MHC/direct/fluorescence; filed as Kd, often an IC50 or EC50 that approximates it; ≥ and ≤ were set here for values at or beyond the usual limits of such assays; conditions: source organism: Corynebacterium diphtheriae
HLA-B*46:01 = experiment: as above; conditions: source organism: Corynebacterium diphtheriae
HLA-B*48:01 = experiment: as above; conditions: source organism: Corynebacterium diphtheriae
HLA-B*27:05 = experiment: as above; conditions: source organism: Corynebacterium diphtheriae
HLA-A*29:02 [10] = experiment: as above; conditions: source organism: Corynebacterium diphtheriae
HLA-B*58:01 = experiment: as above; conditions: source organism: Corynebacterium diphtheriae
HLA-A*03:01 [11] = experiment: as above; conditions: source organism: Corynebacterium diphtheriae
HLA-B*57:01 = experiment: as above; conditions: source organism: Corynebacterium diphtheriae
HLA-B*08:01 [12] = experiment: as above; conditions: source organism: Corynebacterium diphtheriae
HLA-A*11:01 [13] = experiment: as above; conditions: source organism: Corynebacterium diphtheriae
HLA-B*44:02 = experiment: as above; conditions: source organism: Corynebacterium diphtheriae
HLA-B*07:02 [14] = experiment: as above; conditions: source organism: Corynebacterium diphtheriae
HLA-A*02:01 [15] = experiment: as above; conditions: source organism: Corynebacterium diphtheriae
HLA-A*31:01 [16] = experiment: as above; conditions: source organism: Corynebacterium diphtheriae
HLA-B*15:01 = experiment: IEDB peptide-MHC binding, purified MHC/competitive/radioactivity; filed as Kd, often an IC50 or EC50 that approximates it; ≥ and ≤ were set here for values at or beyond the usual limits of such assays; conditions: source organism: Dengue virus 3 Sri Lanka/1266/2000
[17] = source organism: Dengue virus 3 Sri Lanka/1266/2000
[18] = source organism: Trypanosoma cruzi
[19] = source organism: Dengue virus 4 Philippines/H241/1956
[20] = source organism: Hepacivirus hominis
[21] = source organism: Dengue virus 1 Brazil/97-11/1997
[22] = source organism: Dengue virus 1 Singapore/S275/1990
[23] = source organism: Dengue virus 2 Jamaica/1409/1983
[24] = source organism: Dengue virus 3 Martinique/1243/1999
[25] = source organism: Dengue virus 3 China/80-2/1980
[26] = source organism: Vaccinia virus WR
[27] = source organism: Lassa virus Josiah

Sequence: CLMMILPAAL
pKd (HLA-A*02:03; [17]): 7.41
pKd (HLA-A*02:17; [17]): 6.77
pKd (HLA-A*02:01 [1]; [17]): 7.81

pKd (HLA-A*68:02; source organism: Homo sapiens): 4.87
Sequence: DLYEEEMREL

Sequence: FLHKRFTLV
pKd (HLA-A*02:03; [18]): 9.94
pKd (HLA-A*02:06; [18]): 8.86
pKd (HLA-A*68:02; [18]): 5.88
pKd (HLA-A*02:02; [18]): 9.59
pKd (HLA-A*02:01 [1]; [18]): 9.21

Sequence: FLMVLLIPEP
pKd (HLA-A*02:17; [19]): ≤ 4.35
pKd (HLA-A*02:01 [1]; [19]): 7.50

pKd (HLA-A*68:02; source organism: Homo sapiens): ≤ 4.22
Sequence: GMFRTVGQL

Sequence: HSKRKCDEL
pKd (HLA-A*68:01; [20]): ≤ 4.11
pKd (HLA-A*02:03; [20]): 4.91
pKd (HLA-B*51:01; [20]): ≤ 4.33
pKd (HLA-A*01:01 [2]; [20]): ≤ 4.22
pKd (HLA-A*02:06; [20]): 5.94
pKd (HLA-A*68:02; [20]): ≤ 4.16
pKd (HLA-B*53:01; [20]): ≤ 4.52
pKd (HLA-B*35:01; [20]): ≤ 4.11
pKd (HLA-A*33:01; [20]): ≤ 4.11
pKd (HLA-A*02:02; [20]): ≤ 4.36
pKd (HLA-A*03:01 [3]; [20]): ≤ 4.11
pKd (HLA-B*08:01 [4]; [20]): ≤ 4.11
pKd (HLA-A*11:01 [5]; [20]): ≤ 4.11
pKd (HLA-B*07:02 [6]; [20]): ≤ 4.22
pKd (HLA-A*02:01 [1]; [20]): ≤ 4.47
pKd (HLA-A*31:01 [7]; [20]): ≤ 4.11
pKd (HLA-B*54:01; [20]): ≤ 4.44

Sequence: IIFILLMLV
pKd (HLA-A*02:03; [21]): 6.66
pKd (HLA-A*02:06; [21]): 5.93
pKd (HLA-A*02:17; [22]): 6.48
pKd (HLA-A*02:01 [1]; [22]): 7.36

Sequence: ILIGVIITWI
pKd (HLA-A*02:17; [23]): 4.75
pKd (HLA-A*02:01 [1]; [23]): 7.04

Sequence: ILTDGPERV
pKd (HLA-A*02:03; [24]): 6.89
pKd (HLA-A*02:17; [25]): 5.05
pKd (HLA-A*69:01): ≤ 4.70

Sequence: IVLFQRFLR
pKd (HLA-A*68:01; [26]): 8.91
pKd (HLA-A*02:03; [26]): ≤ 4.32
pKd (HLA-B*51:01; [26]): ≤ 4.11
pKd (HLA-A*02:06; [26]): ≤ 4.32
pKd (HLA-A*68:02; [26]): ≤ 4.28
pKd (HLA-B*53:01; [26]): ≤ 4.11
pKd (HLA-B*35:01; [26]): ≤ 4.66
pKd (HLA-A*33:01; [26]): 8.62
pKd (HLA-A*02:02; [26]): ≤ 4.27
pKd (HLA-A*03:01 [3]; [26]): 6.62
pKd (HLA-A*11:01 [5]; [26]): 7.87
pKd (HLA-B*07:02 [6]; [26]): ≤ 4.11
pKd (HLA-A*02:01 [1]; [26]): ≤ 4.11
pKd (HLA-A*31:01 [7]; [26]): 9.73
pKd (HLA-B*54:01; [26]): ≤ 4.11

Sequence: LAIPPTAGV
pKd (HLA-A*68:02; [24]): 8.50

Sequence: LISIFLHLV
pKd (HLA-A*26:01): 4.99
pKd (HLA-A*02:03; [27]): 7.68
pKd (HLA-A*30:02): 5.04
pKd (HLA-A*01:01 [2]; [27]): 5.72
pKd (HLA-A*02:06; [27]): 7.09
pKd (HLA-A*30:01): 5.93
pKd (HLA-A*68:02; [27]): 7.19
pKd (HLA-A*02:02; [27]): 7.95
pKd (HLA-A*32:01): 5.17
pKd (HLA-A*29:02 [8]): 4.93
pKd (HLA-A*02:01 [1]; [27]): 7.33

Sequence: LLGLWGFAAL
pKd (HLA-A*02:03; [18]): 7.44
pKd (HLA-A*02:06; [18]): 6.33
pKd (HLA-A*68:02; [18]): ≤ 3.90
pKd (HLA-A*02:02; [18]): 7.55
pKd (HLA-A*02:01 [1]; [18]): 6.65

Sequence: LLILCVTQV
pKd (HLA-A*02:03; [23]): 8.12
pKd (HLA-A*02:17; [23]): 5.22
pKd (HLA-A*02:01 [1]; [23]): 7.57

Sequence: LMMILPAALA
pKd (HLA-A*02:03; [17]): 7.01
pKd (HLA-A*02:17; [17]): 5.74
pKd (HLA-A*02:01 [1]; [17]): 7.96

Sequence: MVSILASSL
pKd (HLA-A*68:02; [23]): 6.87
pKd (HLA-B*07:02 [6]; [23]): 6.00

Sequence: QVFGTAYGV
pKd (HLA-A*02:06; [21]): 8.14
pKd (HLA-A*68:02; [21]): 9.02

Sequence: RLITVNPIV
pKd (HLA-A*02:03; [23]): 7.20
pKd (HLA-A*02:17; [23]): 6.21

Sequence: TLIASLVMLL
pKd (HLA-A*02:03; [19]): 7.54
pKd (HLA-A*02:17; [19]): 7.24
pKd (HLA-A*02:01 [1]; [19]): 7.31

Sequence: TVAANEMGL
pKd (HLA-A*68:02; [21]): 7.18

pKd (HLA-A*01:01 [9]): ≤ 4.70
pKd (HLA-B*46:01): ≤ 4.70
pKd (HLA-B*48:01): ≤ 4.70
pKd (HLA-B*27:05): ≤ 4.70
pKd (HLA-A*29:02 [10]): ≤ 4.70
pKd (HLA-B*58:01): ≤ 4.70
pKd (HLA-A*03:01 [11]): ≤ 4.70
pKd (HLA-B*57:01): ≤ 4.70
pKd (HLA-B*08:01 [12]): 5.15
pKd (HLA-A*11:01 [13]): ≤ 4.70
pKd (HLA-B*44:02): ≤ 4.70
pKd (HLA-B*07:02 [14]): ≤ 4.70
pKd (HLA-A*02:01 [15]): ≤ 4.70
pKd (HLA-A*31:01 [16]): ≤ 4.70
Sequence: VERRLVKVL

Sequence: VIFILLMLV
pKd (HLA-A*02:03; [24]): 6.77
pKd (HLA-A*02:06; [24]): 5.63
pKd (HLA-A*02:17; [25]): 6.04

Sequence: VLWEGGHDL
pKd (HLA-A*02:17; [19]): 6.34
pKd (HLA-A*02:01 [1]; [19]): 7.84

Sequence: WMTTEDMLAV
pKd (HLA-A*02:03; [23]): 7.69
pKd (HLA-A*02:06; [23]): 7.60
pKd (HLA-A*02:17; [23]): 5.60
pKd (HLA-A*02:01 [1]; [23]): 7.08

Sequence: YLALLAAFKV
pKd (HLA-A*02:03; [23]): 7.82
pKd (HLA-A*02:06; [23]): 8.02
pKd (HLA-A*02:17; [23]): 7.21
pKd (HLA-A*02:01 [1]; [23]): 8.79

Sequence: YQLWTALVSL
pKd (HLA-A*02:06; [17]): 8.23
pKd (HLA-B*15:01): 6.72
pKd (HLA-A*02:17; [25]): 7.04
pKd (HLA-B*08:01 [4]; [17]): 6.01

Sequence: YVSAIAQAKA
pKd (HLA-A*68:02; [21]): 7.66
